# Results taken from US20030138894A1 (Human Genome Sciences, published 2003).
# No end group written: not given here.
# Target: T1, FLAG-tagged ACE-2 target (human, UniProt Q9BYF1 18-740)
# T1 construct: range 1-740; obtained from Human Genome Sciences, Inc; also called FLAG-ACE-2; tagged human ACE-2; not shown: FLAG tag
# Test: phage ELISA on FLAG-ACE-2
# Description: Phage enriched from the third round of selection were screened by ELISA for strong ACE-2 binders. Immulon 2 96-well plates (Dynatech) were coated with streptavidin for 1 hour at 37° C. and subsequently coated with anti-FLAG antibody for 1 hour at room temperature. Half of the plates were further coated with FLAG-ACE-2 as the target plates, and the other half of the plates were coated with FLAG peptide as background plates. The amount of each protein or peptide coated was 100 ng per well. The coated plates were then incubated for 1 hour at room temperature with 1:2 diluted overnight phage cultures that were made by inoculating phage from individual plaques into bacterial host cells. After being washed 7 times with PBST, the plates were incubated with HRP-conjugated anti-M13 antibody (Pharmacia) for 1 hour at room temperature, washed 5 times, developed with TMB peroxidase substrate solution (Kirkegaad & Perry Laboratories, Gaithersburg, Md.), and read at 630 nm on an ELISA plate reader.
# T1 sequence (Q9BYF1 18-740 limits assumed): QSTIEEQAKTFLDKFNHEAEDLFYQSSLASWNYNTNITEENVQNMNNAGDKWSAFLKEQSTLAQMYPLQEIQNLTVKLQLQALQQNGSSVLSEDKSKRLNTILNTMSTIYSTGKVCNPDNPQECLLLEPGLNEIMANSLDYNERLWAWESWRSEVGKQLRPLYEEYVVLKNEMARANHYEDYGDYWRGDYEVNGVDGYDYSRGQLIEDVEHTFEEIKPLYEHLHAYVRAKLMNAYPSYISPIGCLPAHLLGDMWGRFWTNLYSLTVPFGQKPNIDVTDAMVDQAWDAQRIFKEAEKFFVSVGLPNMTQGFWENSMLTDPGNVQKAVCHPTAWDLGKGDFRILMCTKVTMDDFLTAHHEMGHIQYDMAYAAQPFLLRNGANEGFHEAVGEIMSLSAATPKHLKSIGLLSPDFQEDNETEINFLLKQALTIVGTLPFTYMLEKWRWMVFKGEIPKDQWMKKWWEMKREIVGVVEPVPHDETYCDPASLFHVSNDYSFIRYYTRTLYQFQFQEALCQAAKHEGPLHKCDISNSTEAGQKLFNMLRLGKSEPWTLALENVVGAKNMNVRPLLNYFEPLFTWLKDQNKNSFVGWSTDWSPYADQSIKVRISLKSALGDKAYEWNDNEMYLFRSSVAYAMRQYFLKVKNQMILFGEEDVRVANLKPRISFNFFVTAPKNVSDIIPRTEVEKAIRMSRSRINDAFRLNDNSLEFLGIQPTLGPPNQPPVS
row,Binder,binding result
1,"RIGCRDSRCNWWAPG (not fully specified (N-terminus, C-terminus, bridges); cysteine pairing not given here) [ACE-2 binding polypeptide RIGCRDSRCNWWAPG]",binds
2,GIFCFEWETCYQA (not fully specified (bridges); cysteine pairing not given here) [ACE-2 binding polypeptide GIFCFEWETCYQA],binds
3,NDVCLNDDCVYG (not fully specified (bridges); cysteine pairing not given here) [ACE-2 binding polypeptide NDVCLNDDCVYG],binds
4,DYLCFDWEACWLS (not fully specified (bridges); cysteine pairing not given here) [ACE-2 binding polypeptide DYLCFDWEACWLS],binds
5,RGWCLDSRCKVF (not fully specified (bridges); cysteine pairing not given here) [ACE-2 binding polypeptide RGWCLDSRCKVF],binds
6,YDWCFDWEQCWDQ (not fully specified (bridges); cysteine pairing not given here) [ACE-2 binding polypeptide YDWCFDWEQCWDQ],binds
7,AYLCDWILFDSFEMCLAP (not fully specified (bridges); cysteine pairing not given here) [ACE-2 binding polypeptide AYLCDWILFDSFEMCLAP],binds
8,NIFCFDWEPCHFG (not fully specified (bridges); cysteine pairing not given here) [ACE-2 binding polypeptide NIFCFDWEPCHFG],binds
9,"WPTCLTMDCVYN (not fully specified (N-terminus, C-terminus, bridges); cysteine pairing not given here) [ACE-2 binding polypeptide WPTCLTMDCVYN]",binds
10,RGHCRDSRCMMNAPG (not fully specified (bridges); cysteine pairing not given here) [ACE-2 binding polypeptide RGHCRDSRCMMNAPG],binds
11,HYNCHTNDCVVL (not fully specified (bridges); cysteine pairing not given here) [ACE-2 binding polypeptide HYNCHTNDCVVL],binds
12,HLRCMTSDCIHF (not fully specified (bridges); cysteine pairing not given here) [ACE-2 binding polypeptide HLRCMTSDCIHF],binds
13,FNPCRLQSRDSACRFR (not fully specified (bridges); cysteine pairing not given here) [ACE-2 binding polypeptide FNPCRLQSRDSACRFR],binds
14,VGFCFDWEPCDEL (not fully specified (bridges); cysteine pairing not given here) [ACE-2 binding polypeptide VGFCFDWEPCDEL],binds
15,"WVLCFEWEDCDEK (not fully specified (N-terminus, C-terminus, bridges); cysteine pairing not given here) [ACE-2 binding polypeptide WVLCFEWEDCDEK]",binds
16,SIYCFDWEDCWDE (not fully specified (bridges); cysteine pairing not given here) [ACE-2 binding polypeptide SIYCFDWEDCWDE],binds
17,"RGFCRDSSCSFP (not fully specified (N-terminus, C-terminus, bridges); cysteine pairing not given here) [ACE-2 binding polypeptide RGFCRDSSCSFP]",binds
18,"SPTCRALFCVDF (not fully specified (N-terminus, C-terminus, bridges); cysteine pairing not given here) [ACE-2 binding polypeptide SPTCRALFCVDF]",binds
19,HFSCRLPSLDSRCQLW (not fully specified (bridges); cysteine pairing not given here) [ACE-2 binding polypeptide HFSCRLPSLDSRCQLW],binds
20,FEICFDWEVCHEQ (not fully specified (bridges); cysteine pairing not given here) [ACE-2 binding polypeptide FEICFDWEVCHEQ],binds
21,YAMCFDWDECFLG (not fully specified (bridges); cysteine pairing not given here) [ACE-2 binding polypeptide YAMCFDWDECFLG],binds
22,FLFCRLASRDSRCASP (not fully specified (bridges); cysteine pairing not given here) [ACE-2 binding polypeptide FLFCRLASRDSRCASP],binds
23,IGFCFEWEVCYEG (not fully specified (bridges); cysteine pairing not given here) [ACE-2 binding polypeptide IGFCFEWEVCYEG],binds
24,SENCQALFCVDF (not fully specified (bridges); cysteine pairing not given here) [ACE-2 binding polypeptide SENCQALFCVDF],binds
25,MDFCFDWEECWTN (not fully specified (bridges); cysteine pairing not given here) [ACE-2 binding polypeptide MDFCFDWEECWTN],binds

# Further lines, results first:
row,binding result,Binder
1,binds,SGECNWQQFSGWEICLRD (not fully specified (bridges); cysteine pairing not given here) [ACE-2 binding polypeptide SGECNWQQFSGWEICLRD]
2,binds,YEECHWRPMACSTH (not fully specified (bridges); cysteine pairing not given here) [ACE-2 binding polypeptide YEECHWRPMACSTH]
3,binds,"WAVCFDWENCGDK (not fully specified (bridges); printed as W A V C F D W E N - C G D K; cysteine pairing not given here, one position printed as '-') [ACE-2 binding polypeptide WAVCFDWEN-CGDK]"
4,binds,"PFECDWGPWTLEMLCGPP (not fully specified (N-terminus, C-terminus, bridges); cysteine pairing not given here) [ACE-2 binding polypeptide PFECDWGPWTLEMLCGPP]"
5,binds,WQFCFDWDLNCDLR (not fully specified (bridges); cysteine pairing not given here) [ACE-2 binding polypeptide WQFCFDWDLNCDLR]
6,binds,FLLCFDWDIDWEYGCQHH (not fully specified (bridges); cysteine pairing not given here) [ACE-2 binding polypeptide FLLCFDWDIDWEYGCQHH]
7,binds,FFPCRALEKDSRCSFF (not fully specified (bridges); cysteine pairing not given here) [ACE-2 binding polypeptide FFPCRALEKDSRCSFF]
8,binds,YWFCFDWEEDANGHCGGN (not fully specified (bridges); cysteine pairing not given here) [ACE-2 binding polypeptide YWFCFDWEEDANGHCGGN]
9,binds,FQLCFDWEEECEES (not fully specified (bridges); cysteine pairing not given here) [ACE-2 binding polypeptide FQLCFDWEEECEES]
10,binds,YEYCFEWEQCWEK (not fully specified (bridges); cysteine pairing not given here) [ACE-2 binding polypeptide YEYCFEWEQCWEK]
11,binds,YQFCFDWETTCWLD (not fully specified (bridges); cysteine pairing not given here) [ACE-2 binding polypeptide YQFCFDWETTCWLD]
12,binds,HSECRWEWFGRTMICMSF (not fully specified (bridges); cysteine pairing not given here) [ACE-2 binding polypeptide HSECRWEWFGRTMICMSF]
13,binds,"VYFCFDWEQDCDEM (not fully specified (N-terminus, C-terminus, bridges); cysteine pairing not given here) [ACE-2 binding polypeptide VYFCFDWEQDCDEM]"
